Read-outs that look alike come from different tables or passages of the source. Values belong to the binder of their own block, whether it stands above or below them. Starred links: 1 amine or outer side, 2 acyl side, 3 side chain; linkers in the order of their positions; H or OH if unused. Non-standard residues stand in square brackets, D forms with d. Groups on a side chain read outwards from the residue. No end group written: not given here. *: point of attachment. γGlu = O=C(O)[C@H](CCC(=O)[*:2])N[*:1]; Palmitoyl = CCCCCCCCCCCCCCCC(=O)*
Assays:
Assay in all cases: cell-based or functional assay
[1] = biological target: T1, human glucagon receptor (human, UniProt P47871 26-477)
T1 sequence (P47871 26-477): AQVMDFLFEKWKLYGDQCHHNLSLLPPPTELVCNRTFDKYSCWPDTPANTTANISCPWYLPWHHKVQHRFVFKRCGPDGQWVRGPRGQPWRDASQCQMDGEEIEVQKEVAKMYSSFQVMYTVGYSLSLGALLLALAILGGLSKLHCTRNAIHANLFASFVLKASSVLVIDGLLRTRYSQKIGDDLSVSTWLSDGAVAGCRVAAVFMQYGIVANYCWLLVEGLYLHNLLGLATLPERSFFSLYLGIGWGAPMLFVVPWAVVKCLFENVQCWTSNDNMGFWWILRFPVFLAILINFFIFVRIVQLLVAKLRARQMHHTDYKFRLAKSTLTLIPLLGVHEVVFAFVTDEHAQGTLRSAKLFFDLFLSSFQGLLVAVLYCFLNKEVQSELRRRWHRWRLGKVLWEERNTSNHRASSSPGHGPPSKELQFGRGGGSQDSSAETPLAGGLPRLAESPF

[2] = biological target: T2, human GLP-1 receptor (human, UniProt P43220 24-463)
[3] = biological target: T1, human glucagon receptor; remark: listed apart in the source
[4] = biological target: T2, human GLP-1 receptor; remark: listed apart in the source

EC50 hGCGR (cAMP activity assay) [1]: 0.02 nM
EC50 hGLP1R (cAMP activity assay) [2]: 0.02 nM
EC50 hGCGR (cAMP activity assay) [3]: 0.02 nM
EC50 hGLP1 (cAMP activity assay) [4]: 0.02 nM
Binder: HSQGTFTSDYSKYLDSRRAHDFVQWLLNT-NH2 [PD29]

EC50 hGCGR (cAMP activity assay) [3]: 0.01 nM
EC50 hGLP1 (cAMP activity assay) [4]: 0.02 nM
B1: TP534 (peptide)
peptide: H[dS]QGTFTSDK([γGlu-γGlu-Palmitoyl])SKYLDNKRAQDFVQWLMQT-NH2
modifications: N-terminus assumed
SMILES: CCCCCCCCCCCCCCCC(=O)N[C@@H](CCC(=O)N[C@@H](CCC(=O)NCCCC[C@H](NC(=O)[C@H](CC(=O)O)NC(=O)[C@H](CO)NC(=O)[C@@H](NC(=O)[C@H](Cc1ccccc1)NC(=O)[C@@H](NC(=O)CNC(=O)[C@H](CCC(N)=O)NC(=O)[C@@H](CO)NC(=O)[C@@H](N)Cc1c[nH]cn1)[C@@H](C)O)[C@@H](C)O)C(=O)N[C@@H](CO)C(=O)N[C@@H](CCCCN)C(=O)N[C@@H](Cc1ccc(O)cc1)C(=O)N[C@@H](CC(C)C)C(=O)N[C@@H](CC(=O)O)C(=O)N[C@@H](CC(N)=O)C(=O)N[C@@H](CCCCN)C(=O)N[C@@H](CCCNC(=N)N)C(=O)N[C@@H](C)C(=O)N[C@@H](CCC(N)=O)C(=O)N[C@@H](CC(=O)O)C(=O)N[C@@H](Cc1ccccc1)C(=O)N[C@H](C(=O)N[C@@H](CCC(N)=O)C(=O)N[C@@H](Cc1c[nH]c2ccccc12)C(=O)N[C@@H](CC(C)C)C(=O)N[C@@H](CCSC)C(=O)N[C@@H](CCC(N)=O)C(=O)N[C@H](C(N)=O)[C@@H](C)O)C(C)C)C(=O)O)C(=O)O
